The text below walks through data of paper PMC6030205, “The REN4 rheostat dynamically coordinates the apical and lateral domains of Arabidopsis pollen tubes” (Nature Communications, 2018).

The target of the assay is T1, MBP-REN4 (Arabidopsis, UniProt O48716 1-465).
T1 construct: REN4, Arabidopsis, AT2G26490; full length REN4 CDS with stop codon (465 aa) in pDest-566; CDS with stop codon in pDest-566 (Addgene) implies an N-terminal MBP; that vector may also add a His6 tag (surmise); also called REN4 fused with MBP; source: E. coli, purified (amylose beads)
T1 sequence (looked up): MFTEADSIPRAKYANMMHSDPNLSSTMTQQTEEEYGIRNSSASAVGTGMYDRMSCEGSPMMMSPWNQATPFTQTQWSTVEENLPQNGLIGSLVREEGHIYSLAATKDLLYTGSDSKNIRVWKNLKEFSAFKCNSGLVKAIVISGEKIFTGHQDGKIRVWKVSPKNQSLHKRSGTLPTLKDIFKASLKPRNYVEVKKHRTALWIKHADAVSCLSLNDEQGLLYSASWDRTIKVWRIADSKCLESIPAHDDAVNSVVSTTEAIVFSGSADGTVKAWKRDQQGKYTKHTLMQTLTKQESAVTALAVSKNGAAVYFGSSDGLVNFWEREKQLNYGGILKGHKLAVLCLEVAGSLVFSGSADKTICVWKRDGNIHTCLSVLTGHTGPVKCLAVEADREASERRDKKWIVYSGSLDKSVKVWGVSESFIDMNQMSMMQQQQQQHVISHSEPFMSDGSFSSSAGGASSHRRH
As to the kind of experiment: pull-down; MBP-REN4 on amylose agarose beads; about 1 ug GST-ROP1 preloaded with 1 mM GTP or GDP; binding buffer 50 mM Tris-HCl pH 7.5, 10 mM MgCl2, 1 mM DTT, 10 mg/ml BSA, 5 mM EDTA; 4 C, 1 h; washes with 1% Triton X-100; anti-GST and anti-MBP blots. To be noted: both partners purified.

B1: GST-CA-ROP1 (G15V), GTP-bound constitutively active form of ROP1 (natural protein)
chain: not shown
notes: ROP1, Arabidopsis; full length ROP1 CDS with stop codon, mutated G15V, in pDest15; Incubated with 1 mM GTP before the pull-down; source: E. coli, purified (glutathione-agarose); not shown: GST, N-terminal, kept
On to B1, for which the binding result is “binds”.
